Where a chain is given by its changes, count along the chain named. Names may count otherwise. Where two headings read alike, the source gives them in different places.
T1: Z-LSSR-CHO
T1 sequence: LSSR

T2: [35S]methionine-labeled human A20 (in vitro translated) (UniProt P21580)
T2 sequence: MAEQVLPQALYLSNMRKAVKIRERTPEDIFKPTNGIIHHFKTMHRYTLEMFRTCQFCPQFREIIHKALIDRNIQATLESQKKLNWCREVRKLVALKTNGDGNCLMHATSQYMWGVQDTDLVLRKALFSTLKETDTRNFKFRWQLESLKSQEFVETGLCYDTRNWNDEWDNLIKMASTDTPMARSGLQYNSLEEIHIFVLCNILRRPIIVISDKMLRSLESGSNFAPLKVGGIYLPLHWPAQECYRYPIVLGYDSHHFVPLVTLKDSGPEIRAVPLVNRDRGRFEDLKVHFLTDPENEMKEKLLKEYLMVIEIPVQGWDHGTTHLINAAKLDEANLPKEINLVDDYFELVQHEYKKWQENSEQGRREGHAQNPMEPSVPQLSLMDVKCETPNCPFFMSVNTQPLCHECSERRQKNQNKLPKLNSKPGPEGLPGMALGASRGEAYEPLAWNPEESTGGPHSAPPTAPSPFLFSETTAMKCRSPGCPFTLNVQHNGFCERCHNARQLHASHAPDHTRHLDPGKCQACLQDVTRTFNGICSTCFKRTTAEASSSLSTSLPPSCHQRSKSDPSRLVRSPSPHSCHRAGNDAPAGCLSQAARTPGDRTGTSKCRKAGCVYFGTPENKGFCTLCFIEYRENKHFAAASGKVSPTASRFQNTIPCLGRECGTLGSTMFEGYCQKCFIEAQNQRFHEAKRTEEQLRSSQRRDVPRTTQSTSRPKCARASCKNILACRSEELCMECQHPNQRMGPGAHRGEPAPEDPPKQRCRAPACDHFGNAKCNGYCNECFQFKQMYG

T3: Ac-LSSR-AMC
T3 sequence: LSSR

T4: Z-GASR-CHO
T4 sequence: GASR

T5: Ac-LSSR-AMC
T5 chain: LSSR

T6: Z-LSSR-CHO
T6 chain: LSSR

T7: Arabidopsis thaliana serpin, IKLA-mutant, Q9S7T8
T7 chain: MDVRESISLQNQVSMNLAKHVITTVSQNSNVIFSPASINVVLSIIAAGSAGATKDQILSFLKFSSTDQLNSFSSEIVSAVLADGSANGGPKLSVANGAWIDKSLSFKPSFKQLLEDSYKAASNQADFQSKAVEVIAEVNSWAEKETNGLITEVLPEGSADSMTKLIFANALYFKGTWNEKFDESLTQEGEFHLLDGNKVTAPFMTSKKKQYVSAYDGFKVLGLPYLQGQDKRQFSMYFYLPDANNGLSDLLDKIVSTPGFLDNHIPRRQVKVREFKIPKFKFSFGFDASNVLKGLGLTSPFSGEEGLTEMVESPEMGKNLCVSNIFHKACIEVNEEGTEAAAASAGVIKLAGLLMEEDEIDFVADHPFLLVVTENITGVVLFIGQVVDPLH

T8: Arabidopsis thaliana serpin (AT1g47710), Q9S7T8
T8 chain: T7 chain with A351R

B1: MALT1C-gyraseB-C464A (enzyme, part only; not given: gyrase B fragment)
chain, part: TTDQPLAKDKVALLIGNMNYREHPKLKAPLVDVYELTNLLRQLDFKVVSLLDLTEYEMRNAVDEFLLLLDKGVYGLLYYAGHGYENFGNSFMVPVDAPNPYRSENCLCVQNILKLMQEKETGLNVFLLDMARKRNDYDDTIPILDALKVTANIVFGYATCQGAEAFEIQHSGLANGIFMKFLKDRLLEDKKITVLLDEVAEDMGKCHLTKGKQALEIRSSLSEKRALTDPIQGTEYSAESLVRNLQWAKAHELPESMCLKFDCGVQIQLGFAAEFSNVMIIYTSIVYKPPEIIMCDAYVTDFPLDLDIDPKDANKGTPEETGSYLVSKDLPKHCLYTRLSSLQKLKEHLVFTVCLSYQYSGLEDTVEDKQEVNVGKPLIAKLDMHRGLGRKTCFQTCLMSNGPYQSSAATSGGAGHYHSLQDPFHGVYHSHPGNPSNVTPADSCHCSRTPDAFISSFAHHASCHFSRSNVPVETTDEIPFSFSDRLRISEK
B2: MALT1 (wild type, Flag- and Avi-tagged bio-construct) (protein)
chain: MSLLGDPLQALPPSAAPTGPLLAPPAGATLNRLREPLLRRLSELLDQAPEGRGWRRLAELAGSRGRLRLSCLDLEQCSLKVLEPEGSPSLCLLKLMGEKGCTVTELSDFLQAMEHTEVLQLLSPPGIKITVNPESKAVLAGQFVKLCCRATGHPFVQYQWFKMNKEIPNGNTSELIFNAVHVKDAGFYVCRVNNNFTFEFSQWSQLDVCDIPESFQRSVDGVSESKLQICVEPTSQKLMPGSTLVLQCVAVGSPIPHYQWFKNELPLTHETKKLYMVPYVDLEHQGTYWCHVYNDRDSQDSKKVEIIIGRTDEAVECTEDELNNLGHPDNKEQTTDQPLAKDKVALLIGNMNYREHPKLKAPLVDVYELTNLLRQLDFKVVSLLDLTEYEMRNAVDEFLLLLDKGVYGLLYYAGHGYENFGNSFMVPVDAPNPYRSENCLCVQNILKLMQEKETGLNVFLLDMCRKRNDYDDTIPILDALKVTANIVFGYATCQGAEAFEIQHSGLANGIFMKFLKDRLLEDKKITVLLDEVAEDMGKCHLTKGKQALEIRSSLSEKRALTDPIQGTEYSAESLVRNLQWAKAHELPESMCLKFDCGVQIQLGFAAEFSNVMIIYTSIVYKPPEIIMCDAYVTDFPLDLDIDPKDANKGTPEETGSYLVSKDLPKHCLYTRLSSLQKLKEHLVFTVCLSYQYSGLEDTVEDKQEVNVGKPLIAKLDMHRGLGRKTCFQTCLMSNGPYQSSAATSGGAGHYHSLQDPFHGVYHSHPGNPSNVTPADSCHCSRTPDAFISSFAHHASCHFSRSNVPVETTDEIPFSFSDRLRISEK
B3: MALT1-R149A (bio-tagged) (protein)
chain: B2 chain with R149A
B4: MALT1-C464A (bio-tagged) (protein)
chain: B2 chain with C464A
B5: MALT1 as used in the paracaspase assay of Example 10 (protein)
chain: B2 chain

Experiments:
Z-LSSR-CHO [1] = tested on: T1, Z-LSSR-CHO
[2] = target: T2, [35S]methionine-labeled human A20 (in vitro translated)
Ac-LSSR-AMC [3] = tested on: T3, Ac-LSSR-AMC
Z-GASR-CHO = tested on: T4, Z-GASR-CHO
Ac-LSSR-AMC [4] = target: T5, Ac-LSSR-AMC
Z-LSSR-CHO [5] = target: T6, Z-LSSR-CHO
[6] = target: T7, Arabidopsis thaliana serpin, …
[7] = target: T8, Arabidopsis thaliana serpin …

| Molecule | in vitro cleavage of radiolabeled A20 (SDS-PAGE, autoradiography; 500, 1000 or 1500 nM enzyme) [2] | cleavage of Ac-LSSR-AMC in vitro (fluorescence release) (Ac-LSSR-AMC [3]) | cleavage of Ac-LSSR-AMC in vitro (fluorescence release) (Ac-LSSR-AMC [4]) | other results |
| --- | --- | --- | --- | --- |
| MALT1C-gyraseB | In vitro incubation of radiolabeled A20 with recombinant MALT1C-gyraseB resulted in the generation of an A20 fragment of approximately 50 kDa | the recombinant MALT1 p20 fragment (Sun et al., 2004) efficiently cleaved the Ac-LSSR-AMC (see SEQ ID NO:1) substrate | – | Ac-LSSR-AMC cleavage by recombinant MALT1 (Z-LSSR-CHO [1]): adding Z-LSSR-CHO (see SEQ ID NO:1) or Z-GASR-CHO (see SEQ ID NO:2) completely blocked the proteolytic activity of recombinant MALT1; Ac-LSSR-AMC cleavage by recombinant MALT1 (Z-GASR-CHO): adding Z-LSSR-CHO (see SEQ ID NO:1) or Z-GASR-CHO (see SEQ ID NO:2) completely blocked the proteolytic activity of recombinant MALT1 |
| B1 | incubation of A20 with the catalytically inactive MALT1C-gyraseB-C464A mutant protein did not result in A20 cleavage | the recombinant C464A mutant failed to do so, although its higher concentration | – | – |
| B2 | – | – | bio-IP purified MALT1 was indeed able to cleave Ac-LSSR-AMC (see SEQ ID NO:1) in vitro | Ac-LSSR-AMC cleavage by bio-IP purified MALT1 (fluorescence release) (Z-LSSR-CHO [5]): Substrate cleavage by MALT1 was efficiently blocked by a Z-LSSR-CHO (see SEQ ID NO:1) and a Z-GASR-CHO (see SEQ ID NO:2) inhibitor at equimolar concentrations |
| B3 | – | – | the R149A mutant was as efficient in substrate processing as MALT1 | – |
| B4 | – | – | whereas bio-1P purified C464 mutant was not | – |
| B5 | – | – | – | paracaspase assay (MALT1 proteolytic activity) [6]: the IKLA-mutant (SEQ ID NO:16), which is inactive versus plant metacaspase (Vercammen et al., 2006) is performing better than wild type serpin at higher concentrations; paracaspase assay (MALT1 proteolytic activity) [7]: Inhibition of the MALT1 paracaspase activity is possible, but only at relatively high concentrations of serpin |

— patent US8309523 (VIB VZW, dated 2012)
